{"source": "paper PMC4189725", "biological_target": "CD40-FasL", "assay": "SEC; gel filtration (Superdex 200) of CD40-FasL conditioned medium; fractions analysed by Western blot (anti FasL) and CD40 ELISA", "data": [{"substance": "CD40-FasL", "values": [{"measurement": "stoichiometry N", "result": 6}]}]}
